Experimental data as given in patent US20060046271A1 (VANDERBILT UNIVERSITY, published 2006).

Target: α2bβ3 receptor (mouse (endogenous, tumor-bearing …, UniProt Q9QUM0 32-1033; O54890 26-787)
Assay: cell-based or functional assay

Chain of α2bβ3 receptor (mouse (Q9QUM0 32-1033, chain 1 of 2): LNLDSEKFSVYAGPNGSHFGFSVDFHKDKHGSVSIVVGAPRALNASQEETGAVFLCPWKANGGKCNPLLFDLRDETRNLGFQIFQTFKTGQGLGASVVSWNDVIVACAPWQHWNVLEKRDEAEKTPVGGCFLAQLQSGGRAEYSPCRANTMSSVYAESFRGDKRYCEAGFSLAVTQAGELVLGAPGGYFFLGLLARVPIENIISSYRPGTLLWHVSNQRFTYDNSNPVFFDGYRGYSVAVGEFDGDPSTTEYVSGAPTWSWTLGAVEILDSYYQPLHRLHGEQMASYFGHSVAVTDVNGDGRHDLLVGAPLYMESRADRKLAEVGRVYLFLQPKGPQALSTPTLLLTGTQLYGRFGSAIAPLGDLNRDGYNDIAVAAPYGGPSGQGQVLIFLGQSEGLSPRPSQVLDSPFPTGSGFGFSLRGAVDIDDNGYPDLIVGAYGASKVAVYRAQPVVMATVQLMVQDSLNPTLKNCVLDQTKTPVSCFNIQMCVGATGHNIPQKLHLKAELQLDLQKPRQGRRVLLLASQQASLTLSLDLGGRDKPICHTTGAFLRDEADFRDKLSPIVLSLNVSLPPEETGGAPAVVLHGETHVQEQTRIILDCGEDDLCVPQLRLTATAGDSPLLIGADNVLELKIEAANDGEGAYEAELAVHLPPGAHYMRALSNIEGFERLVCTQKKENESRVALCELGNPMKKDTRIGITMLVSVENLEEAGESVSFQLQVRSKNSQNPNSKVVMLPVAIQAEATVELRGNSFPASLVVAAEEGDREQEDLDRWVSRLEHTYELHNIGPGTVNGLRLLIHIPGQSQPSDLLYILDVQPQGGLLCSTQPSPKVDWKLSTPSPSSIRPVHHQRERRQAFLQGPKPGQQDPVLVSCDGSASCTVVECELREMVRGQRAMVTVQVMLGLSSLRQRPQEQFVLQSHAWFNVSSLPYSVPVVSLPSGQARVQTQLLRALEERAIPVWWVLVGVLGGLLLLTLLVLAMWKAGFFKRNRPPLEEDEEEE
Chain of α2bβ3 receptor (mouse (O54890 26-787, chain 2 of 2): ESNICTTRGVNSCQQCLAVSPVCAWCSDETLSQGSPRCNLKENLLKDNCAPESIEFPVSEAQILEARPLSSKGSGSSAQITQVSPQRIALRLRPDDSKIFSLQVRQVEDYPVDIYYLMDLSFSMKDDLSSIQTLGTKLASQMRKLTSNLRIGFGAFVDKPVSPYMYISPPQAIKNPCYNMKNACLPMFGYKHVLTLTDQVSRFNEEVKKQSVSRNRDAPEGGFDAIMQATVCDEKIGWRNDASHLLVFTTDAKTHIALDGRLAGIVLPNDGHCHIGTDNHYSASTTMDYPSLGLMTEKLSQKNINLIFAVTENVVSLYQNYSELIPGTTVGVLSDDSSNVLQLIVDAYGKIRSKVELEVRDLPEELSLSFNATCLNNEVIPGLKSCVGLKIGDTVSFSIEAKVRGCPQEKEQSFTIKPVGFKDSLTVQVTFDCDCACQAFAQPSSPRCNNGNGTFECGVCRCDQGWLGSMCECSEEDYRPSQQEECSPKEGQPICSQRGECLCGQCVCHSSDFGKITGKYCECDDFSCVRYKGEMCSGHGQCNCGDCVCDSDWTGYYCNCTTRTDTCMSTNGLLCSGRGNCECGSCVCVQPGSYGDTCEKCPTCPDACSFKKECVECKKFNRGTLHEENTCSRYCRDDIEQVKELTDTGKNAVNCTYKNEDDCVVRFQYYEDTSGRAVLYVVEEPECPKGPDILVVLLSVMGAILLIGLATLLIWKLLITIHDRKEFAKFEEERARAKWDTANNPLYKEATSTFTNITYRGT

B1: Phage encoding SLRGDGSSV (SEQ ID NO: 2) on the capsid protein (peptide)
peptide: MASMTGGQQMGTNQGKGVVAAGDKLALFLKVFGGEVLTAFARTSVTTSRHMVRSISSGKSAQFPVLGRTQAAYLAPGENLDDKRKDIKHTEKVITIDGLLTADVLIYDIEDAMNHYDVRSEYTSQLGESLAMAADGAVLAEIAGLCNVESKYNENIEGLGTATVIETTQNKAALTDQVALGKEIIAALTKARAALTKNYVPAADRVFYCDPDSYSAILAALMPNAANYAALIDPEKGSIRNVMGFEVVEVPHLTAGGAGTAREGTTGQKHVFPANKGEGNVKVAKDNVIGLFMHRSAVGTVKLRDLALERARRANFQADQIIAKYAMGHGGLRPEAAGAVVFQSGVMLNSLRGDGSSV
  phage binding in tumor (phage recovered, quantified by plaque formation): 4 fold
